Positions count from the first letter of the chain named.
Legend:
Assay in all cases: ELISA
[1] = target: T1, RAET1E (Homo sapiens (Human), UniProt Q8TD07 31-225)
T1 sequence: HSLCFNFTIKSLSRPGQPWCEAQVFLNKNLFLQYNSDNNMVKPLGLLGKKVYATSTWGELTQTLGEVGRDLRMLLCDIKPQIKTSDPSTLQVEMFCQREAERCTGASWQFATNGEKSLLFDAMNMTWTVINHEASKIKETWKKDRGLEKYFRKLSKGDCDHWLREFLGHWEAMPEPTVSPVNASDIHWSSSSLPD

[2] = target: T2, TPBG (Homo sapiens (Human), UniProt Q13641 32-355)
T2 sequence: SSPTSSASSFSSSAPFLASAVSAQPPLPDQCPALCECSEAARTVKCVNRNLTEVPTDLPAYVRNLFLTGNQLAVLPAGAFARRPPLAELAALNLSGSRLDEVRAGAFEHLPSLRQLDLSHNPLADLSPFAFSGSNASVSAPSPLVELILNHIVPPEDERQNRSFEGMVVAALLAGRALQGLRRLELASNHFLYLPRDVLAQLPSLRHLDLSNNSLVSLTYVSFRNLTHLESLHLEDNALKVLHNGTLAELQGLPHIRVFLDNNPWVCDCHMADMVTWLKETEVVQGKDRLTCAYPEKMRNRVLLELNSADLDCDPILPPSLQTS

[3] = target: T3, OPTC (Homo sapiens (Human), UniProt Q9UBM4 20-332)
T3 sequence: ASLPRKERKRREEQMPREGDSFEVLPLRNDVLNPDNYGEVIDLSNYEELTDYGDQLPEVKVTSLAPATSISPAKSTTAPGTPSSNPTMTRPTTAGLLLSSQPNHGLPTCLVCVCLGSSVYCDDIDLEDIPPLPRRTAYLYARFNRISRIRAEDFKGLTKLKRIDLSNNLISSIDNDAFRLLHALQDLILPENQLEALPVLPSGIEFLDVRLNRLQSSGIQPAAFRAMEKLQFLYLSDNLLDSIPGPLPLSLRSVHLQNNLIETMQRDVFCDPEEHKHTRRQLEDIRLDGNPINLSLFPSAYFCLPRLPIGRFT

[4] = target: T4, DKK4 (Homo sapiens (Human), UniProt Q9UBT3 19-224)
T4 sequence: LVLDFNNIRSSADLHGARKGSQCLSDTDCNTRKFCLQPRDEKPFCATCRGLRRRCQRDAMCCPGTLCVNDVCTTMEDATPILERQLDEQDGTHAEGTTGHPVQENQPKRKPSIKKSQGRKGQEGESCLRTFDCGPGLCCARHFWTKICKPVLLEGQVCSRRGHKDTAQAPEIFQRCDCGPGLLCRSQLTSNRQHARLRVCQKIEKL

[5] = target: T5, OGN (Homo sapiens (Human), UniProt P20774 21-298)
T5 sequence: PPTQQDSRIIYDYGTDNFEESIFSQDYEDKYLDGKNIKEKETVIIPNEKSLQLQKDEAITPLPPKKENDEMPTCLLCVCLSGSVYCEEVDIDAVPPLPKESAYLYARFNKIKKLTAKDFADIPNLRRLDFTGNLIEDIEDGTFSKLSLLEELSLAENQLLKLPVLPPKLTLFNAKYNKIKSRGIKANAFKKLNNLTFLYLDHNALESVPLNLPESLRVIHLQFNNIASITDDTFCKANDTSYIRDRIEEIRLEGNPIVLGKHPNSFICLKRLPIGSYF

[6] = target: T6, LRRN4 (Homo sapiens (Human), UniProt Q8WUT4 19-679)
T6 sequence: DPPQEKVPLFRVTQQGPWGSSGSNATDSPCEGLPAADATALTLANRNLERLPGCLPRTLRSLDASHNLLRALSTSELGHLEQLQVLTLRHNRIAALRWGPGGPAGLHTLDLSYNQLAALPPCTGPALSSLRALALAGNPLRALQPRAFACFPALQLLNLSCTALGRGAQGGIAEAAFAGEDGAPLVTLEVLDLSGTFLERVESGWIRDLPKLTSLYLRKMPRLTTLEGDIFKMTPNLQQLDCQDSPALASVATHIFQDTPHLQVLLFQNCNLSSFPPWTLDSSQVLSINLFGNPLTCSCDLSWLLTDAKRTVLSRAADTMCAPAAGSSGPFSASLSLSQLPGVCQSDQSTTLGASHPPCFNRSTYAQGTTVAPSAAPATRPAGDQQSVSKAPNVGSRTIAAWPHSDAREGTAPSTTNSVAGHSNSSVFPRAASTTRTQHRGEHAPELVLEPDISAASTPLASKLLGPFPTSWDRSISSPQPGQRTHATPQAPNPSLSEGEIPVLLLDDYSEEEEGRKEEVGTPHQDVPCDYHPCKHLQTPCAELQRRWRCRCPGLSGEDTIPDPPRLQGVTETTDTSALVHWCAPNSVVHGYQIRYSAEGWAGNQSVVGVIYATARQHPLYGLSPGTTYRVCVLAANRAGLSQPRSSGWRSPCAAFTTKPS

[7] = target: TNFSF9 (Homo sapiens (Human), UniProt P41273 50-254)
TNFSF9, sequence (P41273 50-254 limits assumed): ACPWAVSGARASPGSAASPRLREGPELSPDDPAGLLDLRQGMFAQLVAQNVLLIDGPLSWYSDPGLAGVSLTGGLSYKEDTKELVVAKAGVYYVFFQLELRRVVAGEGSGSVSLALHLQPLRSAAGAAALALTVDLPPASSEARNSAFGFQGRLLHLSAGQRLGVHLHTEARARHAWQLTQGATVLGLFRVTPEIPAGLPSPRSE

[8] = target: T7, CD320 (Homo sapiens (Human), UniProt Q9NPF0 36-229)
T7 sequence: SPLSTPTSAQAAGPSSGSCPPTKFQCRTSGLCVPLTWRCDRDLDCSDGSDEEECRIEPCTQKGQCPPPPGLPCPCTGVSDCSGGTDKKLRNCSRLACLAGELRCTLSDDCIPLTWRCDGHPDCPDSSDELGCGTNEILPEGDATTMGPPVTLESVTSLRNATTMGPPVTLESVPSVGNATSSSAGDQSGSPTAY

[9] = target: T8, PLXDC1 (Homo sapiens (Human), UniProt Q8IUK5 19-426)
T8 sequence: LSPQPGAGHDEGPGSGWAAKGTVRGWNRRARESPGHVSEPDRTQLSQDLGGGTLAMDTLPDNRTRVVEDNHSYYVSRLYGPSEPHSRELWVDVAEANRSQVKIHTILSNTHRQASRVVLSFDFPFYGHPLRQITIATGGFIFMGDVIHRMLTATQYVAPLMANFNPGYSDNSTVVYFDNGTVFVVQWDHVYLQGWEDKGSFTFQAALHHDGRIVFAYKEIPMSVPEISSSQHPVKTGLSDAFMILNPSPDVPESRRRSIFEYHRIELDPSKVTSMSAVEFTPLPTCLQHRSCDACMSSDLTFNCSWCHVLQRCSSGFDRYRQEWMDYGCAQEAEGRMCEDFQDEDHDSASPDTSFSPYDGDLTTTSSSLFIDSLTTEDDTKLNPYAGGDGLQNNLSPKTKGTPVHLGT

Measured: binding result

B1: PD1-41C9 (antibody, V domains shown)
VH: QMQLVESGGGVVQPGRSLRLSCAASGFTFSSYAMHWVRQAPGKGLEWVAVISYDGSNKYYADSVKGRFTISRDNSKNTLYLQMNRLRSEDTAVYYCTTTTFDSWGQGTLITVSS
VL: DIVMTQTPLSLPVTPGEAASISCRSSQSLLDSEDGNTYLDWYLQKPGQSPQLLIYTLSHRASGVPDRFSGSGSGTDFTLKISRVAAEDVGLYYCLQRMGFPYTFGQGTKLDIK
notes: scFv-phage in the screening ELISA; whole IgG in the other assays
no binding (tested: 1 ug/ml): [1] | [2] | [3] | [4] | [5] | [6] | [7] | [8] | [9]

B2: PD1-49A2 (antibody, V domains shown)
VH: B1 VH with M2V, S75P, R85S, S88A, Q106R, I110V
VL: B1 VL with T7S, A18P, L30F, E33D, A85E, L91I, L110V, D111E
notes: scFv-phage in the screening ELISA; whole IgG in the other assays; also called Parent 49A2
no binding (tested: 1 ug/ml): [1] | [2] | [3] | [4] | [5] | [6] | [7] | [8] | [9]

B3: PD1-45D6 (antibody, V domains shown)
VH: QVQLVESGGGVVQPGRSLRLSCAASGFTFSSYAMHWVRQVPGKGLEWVAVISYDGNDKYYADSVKGRFTISRDNSKNTLYLQMNSLRAEDTAVYYCVPTTFEYWGQGSQVTVSS
VL: DIVMTQTPLSLPVTPGEAASISCRSSQSLLDSDDGKTYLDWYLQKPGQSPQLLIYTLSYRASGVPDRFSGSGSGTEFNLRISRVEAEDVGIYYCMQRVEFPFTFGQGTKLDIK
notes: as for B1
no binding (tested: 1 ug/ml): [1] | [2] | [3] | [4] | [5] | [6] | [7] | [8] | [9]
